Source: patent US20230070752A1 (KOREA ADVANCED INSTITUTE OF SCIENCE AND TECHNOLOGY, published 2023)

T1: IL10Rβ (UniProt Q08334 20-220, limits assumed)
T1 construct: Soluble protein used at 500, 1000 and 2000 nM in BLI; also called IL10RB; interleukin-10 receptor beta
T1 sequence (looked up): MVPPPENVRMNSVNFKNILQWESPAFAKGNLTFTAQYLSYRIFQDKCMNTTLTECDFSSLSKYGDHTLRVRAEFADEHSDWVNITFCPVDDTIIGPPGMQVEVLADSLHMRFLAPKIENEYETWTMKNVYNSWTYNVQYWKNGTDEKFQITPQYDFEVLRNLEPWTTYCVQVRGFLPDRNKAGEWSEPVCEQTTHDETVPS

T2: IFNλR1 (UniProt Q8IU57 21-228, limits assumed)
T2 construct: Soluble protein used at 500, 1000 and 2000 nM in BLI; also called IFNLR1; interferon lambda receptor 1
T2 sequence (looked up): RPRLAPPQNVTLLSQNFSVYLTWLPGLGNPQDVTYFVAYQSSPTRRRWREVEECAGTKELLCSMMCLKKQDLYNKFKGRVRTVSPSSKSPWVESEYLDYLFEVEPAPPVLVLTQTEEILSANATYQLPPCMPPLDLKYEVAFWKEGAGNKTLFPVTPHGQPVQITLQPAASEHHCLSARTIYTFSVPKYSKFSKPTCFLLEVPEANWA


What was measured:
IL10Rβ [1] = molecular target: T1, IL10Rβ; assay: BLI (BLItz), biotinylated IFNλ4 on streptavidin sensor, IL10Rβ in solution at 500-2000 nM, 1:1 global fit
Method: (§1) Sensorgrams were obtained from BLItz instrument. Data points are shown in grey and the corresponding fits are shown in red (IFNλR1) and blue (IL10Rβ). KD values were calculated from 1:1 global fitting.
(§2) The binding kinetics of the IFNλ4 variant to IFNλR1 and IL10Rβ were measured using biolayer light interferometry (BLI) in a BLItz system (ForteBio, Pall Life Sciences). The mixture was stirred in a washing buffer (200 mM NaCl, 20 mM Tris-HCl pH 8, 5% glycerol, 0.01% Tween-20) at 2,200 rpm. Analysis was performed at room temperature. 0.25 mg/ml of biotinylated IFNλ4 was loaded on the surface of the streptavidin biosensor (ForteBio) for 1 minute, and then the loaded biosensor was washed with a washing buffer (200 mM NaCl, 20 mM Tris-HCl pH 8, 5% glycerol, 0.01% Tween-20) for 2 minutes to remove unbound protein. The biosensor tip was immersed in drops containing the indicated concentrations of IFNλR1 and IL10Rβ (500, 1000 and 2000 nM). Associations (on rate, kon) were measured at intervals of 2 minutes. Subsequently, the sensor was immersed in the washing buffer for 2 minutes to measure dissociations (off-rate koff). KD measured in nanomoles was calculated as a ratio of […]. The resulting data was analyzed by fitting to a 1:1 ligand model using the entire global fitting function.
(§3) To investigate whether the mutation and the additional glycan on IFNλ4 variants affect their binding to their receptors, IL10Rβ and IFNλR1, in-vitro binding affinity of the IFNλ4 variants to IL10Rβ and IFNλR1 was evaluated using biolayer light interferometry (BLI) and then compared with that of wild-type IFNλ4 (eIFNλ4) purified from E. coli. Similar to eIFNλ4, the three IFNλ4 variants appropriately bound to the receptor, and the binding affinity for IFNλR1 was higher than the binding affinity for IL10Rβ (FIG. 4).

IFNλR1 [2] = molecular target: T2, IFNλR1; assay: BLI (BLItz), biotinylated eIFNλ4 immobilized on streptavidin biosensor, IFNλR1 as analyte (500, 1000, 2000 nM), 1:1 global fit
Method: as §1, §2

IL10Rβ [3] = molecular target: T1, IL10Rβ; assay: BLI (BLItz), biotinylated eIFNλ4 immobilized on streptavidin biosensor, IL10Rβ as analyte (500, 1000, 2000 nM), 1:1 global fit; column head k dis
Method: as §1, §2

IL10Rβ [4] = molecular target: T1, IL10Rβ; assay: BLI (BLItz), biotinylated eIFNλ4 immobilized on streptavidin biosensor, IL10Rβ as analyte (500, 1000, 2000 nM), 1:1 global fit
Method: as §1, §2

IFNλR1 [5] = molecular target: T2, IFNλR1; assay: BLI (BLItz), biotinylated eIFNλ4 immobilized on streptavidin biosensor, IFNλR1 as analyte (500, 1000, 2000 nM), 1:1 global fit; column head k dis
Method: as §1, §2

IFNλR1 [6] = molecular target: T2, IFNλR1; assay: BLI (BLItz), biotinylated IFNλ4 on streptavidin sensor, IFNλR1 in solution at 500-2000 nM, 1:1 global fit
Method: as §1, §2, §3

IFNλR1 [7] = molecular target: T2, IFNλR1; assay: BLI (BLItz), biotinylated IFNλ4 variant immobilized on streptavidin biosensor, IFNλR1 as analyte (500, 1000, 2000 nM), 1:1 global fit
Method: as §1, §2

IL10Rβ [8] = molecular target: T1, IL10Rβ; assay: BLI (BLItz), biotinylated IFNλ4 variant immobilized on streptavidin biosensor, IL10Rβ as analyte (500, 1000, 2000 nM), 1:1 global fit; column head k dis
Method: as §1, §2

IFNλR1 [9] = molecular target: T2, IFNλR1; assay: BLI (BLItz), biotinylated IFNλ4 variant immobilized on streptavidin biosensor, IFNλR1 as analyte (500, 1000, 2000 nM), 1:1 global fit; column head k dis
Method: as §1, §2

IL10Rβ [10] = molecular target: T1, IL10Rβ; assay: BLI (BLItz), biotinylated IFNλ4 variant immobilized on streptavidin biosensor, IL10Rβ as analyte (500, 1000, 2000 nM), 1:1 global fit
Method: as §1, §2

Row | Kd (IL10Rβ [1]) [nM] | kon (IFNλR1 [2]) [M⁻¹ s⁻¹] | koff (IL10Rβ [3]) [s⁻¹] | kon (IL10Rβ [4]) [M⁻¹ s⁻¹] | koff (IFNλR1 [5]) [s⁻¹] | Kd (IFNλR1 [6]) [nM] | kon (IFNλR1 [7]) [M⁻¹ s⁻¹] | koff (IL10Rβ [8]) [s⁻¹] | koff (IFNλR1 [9]) [s⁻¹] | kon (IL10Rβ [10]) [M⁻¹ s⁻¹] | Binder
1 | 71 | 21300 | 0.00203 | 28800 | 0.000397 | 19 |  |  |  |  | eIFNλ4 (wild-type IFNλ4 produced in E. coli, R&D Systems 9165-IL) (ligand, not glycosylated (E. coli); biotinylated for BLI, Bought as protein and used as the wild-type control; also called eIFNL4; control wild-type IFNλ4) MAPRRCLLSHYRSLEPRTLAAAKALRDRYEEEALSWGQRNCSFRPRRDPPRPSSCARLRHVARGIADAQAVLSGLHRSELLPGAGPILELLAAAGRDVAACLELARPGSSRKVPGAQKRRHKPRRADSPRCRKASVVFNLLRLLTWELRLAAHSGPCL
2 | 51 |  |  |  |  | 22 | 29200 | 0.00148 | 0.000647 | 29100 | M3 (P73N) IFNλ4 variant (ligand, N-glycans at Asn61 and at P73N (Asn73); biotinylated for BLI, Secreted from Expi293F cells as a C-terminal Protein A fusion; Protein A was removed by thrombin at an LVPRGS site; Monomer by SDS-PAGE; also called P73N (M3)) AAPRRCLLSHYRSLEPRTLAAAKALRDRYEEEALSWGQRNCSFRPRRDPPRNSSCARLRHVARGIADAQAVLSGLHRSELLPGAGPILELLAAAGRDVAACLELARPGSSRKVPGAQKRRHKPRRADSPRCRKASVVFNLLRLLTWELRLAAHSGPCL
3 | 49 |  |  |  |  | 17 | 58300 | 0.00129 | 0.000967 | 26200 | M7 (L28N+P73N) IFNλ4 variant (ligand, N-glycans at Asn61 and at P73N (Asn73); L28N not glycosylated; biotinylated for BLI, Secreted from Expi293F cells as a C-terminal Protein A fusion; Protein A was removed by thrombin at an LVPRGS site; Monomer by SDS-PAGE; also called double mutant) AAPRRCNLSHYRSLEPRTLAAAKALRDRYEEEALSWGQRNCSFRPRRDPPRNSSCARLRHVARGIADAQAVLSGLHRSELLPGAGPILELLAAAGRDVAACLELARPGSSRKVPGAQKRRHKPRRADSPRCRKASVVFNLLRLLTWELRLAAHSGPCL
4 | 49 |  |  |  |  | 14 | 50200 | 0.00104 | 0.000686 | 21300 | M1 (L28N) IFNλ4 variant (ligand, N-glycan at Asn61 (L28N not glycosylated); biotinylated for BLI, Secreted from Expi293F cells as a C-terminal Protein A fusion; Protein A was removed by thrombin at an LVPRGS site; Monomer by SDS-PAGE; also called L28N (M1)) AAPRRCNLSHYRSLEPRTLAAAKALRDRYEEEALSWGQRNCSFRPRRDPPRPSSCARLRHVARGIADAQAVLSGLHRSELLPGAGPILELLAAAGRDVAACLELARPGSSRKVPGAQKRRHKPRRADSPRCRKASVVFNLLRLLTWELRLAAHSGPCL
